Data on three molecules can be found in patent US20220001043A1 (IMAGINAB, published 2022).

The target in test [1] is T1, human CD8 (Homo sapiens, UniProt P01732 22-235; A6NJW9 19-210).
T1 construct: CD8 as carried by purified human T cells, HPB-ALL leukemia cells, human tissues and CD8+ cells in patients; also called huCD8; CD8 glycoprotein
Briefly: binding to CD8 glycoprotein; method not given.

Test [2] deals with T1, human CD8. As to the kind of experiment: flow cytometry on human T cells carrying CD8. As to the method:
(§1) The binding affinity and specificity of IAB22M2C and Zr-Df-IAB22M2C to human CD8 expressed on cell surfaces were evaluated by flow cytometry for a several cell types, including HPB-ALL leukemia cells (DSMZ, Braunschweig, Germany), purified human T cells, and PC3 prostate cancer cells engineered to express huCD8 (ImaginAb, Inc.).
For orientation: In flow cytometry, cells or beads pass a laser one at a time.

Test [3] has as its target T1, human CD8. As to the kind of experiment: flow cytometry on HPB-ALL cell line carrying CD8. As to the method: as §1
The target of test [4] is T1, human CD8. Briefly: cell binding; read as HPB-ALL cells ('respectively' taken to mean the cell types, as in p-1525).
The target of test [5] is T1, human CD8. Briefly: cell binding; read as purified human T cells ('respectively' taken to mean the cell types, as in p-1525).

By EC50 is commonly meant the midpoint of the concentration-response curve.

T1 sequence (P01732 22-235 limits assumed, chain 1 of 2): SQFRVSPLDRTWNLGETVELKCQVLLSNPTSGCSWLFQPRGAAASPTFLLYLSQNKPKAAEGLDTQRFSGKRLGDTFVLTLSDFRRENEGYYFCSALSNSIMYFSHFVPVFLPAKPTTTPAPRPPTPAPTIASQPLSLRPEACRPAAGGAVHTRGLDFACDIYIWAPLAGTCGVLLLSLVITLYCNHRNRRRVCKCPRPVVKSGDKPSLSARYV
T1 sequence (A6NJW9 19-210 C51R/T71A limits assumed, chain 2 of 2): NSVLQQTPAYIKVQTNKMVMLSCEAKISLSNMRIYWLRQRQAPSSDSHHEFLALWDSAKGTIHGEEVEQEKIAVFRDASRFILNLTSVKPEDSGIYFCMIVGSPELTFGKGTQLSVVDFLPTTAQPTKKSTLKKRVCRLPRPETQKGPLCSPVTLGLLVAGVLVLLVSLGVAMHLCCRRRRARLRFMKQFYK

B1: 89Zr-Df-IAB22M2C (other)
chain: DVQITQSPSSLSASVGDRVTITCRTSRSISQYLAWYQQKPGKVPKLLIYSGSTLQSGVPSRFSGSGSGTDFTLTISSLQPEDVATYYCQQHNENPLTFGGGTKVEIKGSTSGGGSGGGSGGGGSSEVQLVESGGGLVQPGGSLRLSCAASGFNIKDTYIHFVRQAPGKGLEWIGRIDPANDNTLYASKFQGKATISADTSKNTAYLQMNSLRAEDTAVYYCGRGYGYYVFDHWGQGTLVTVSSEPKSSDKTHTCPPCPPCGGGSSGGGSGGQPREPQVYTLPPSREEMTKNQVSLTCLVKGFYPSDIAVEWESNGQPENNYKTTPPVLDSDGSFFLYSKLTVDKSRWQQGNVFSCSVMHEALHNHYTQKSLSLSPG
modifications: deferoxamine (Df) conjugated to lysine residues, radiolabeled with 89Zr
notes: Radiolabeled drug product; Same polypeptide as m1; For patients it is formulated together with cold unconjugated IAB22M2C; also called 89Zr-Df-IAB22M Lot: 42-040A; CD8 PET tracer
As to B1, the EC50 in the test with human CD8 [1] is 0.4 nM.

B2: IAB22M2C (other)
chain: DVQITQSPSSLSASVGDRVTITCRTSRSISQYLAWYQQKPGKVPKLLIYSGSTLQSGVPSRFSGSGSGTDFTLTISSLQPEDVATYYCQQHNENPLTFGGGTKVEIKGSTSGGGSGGGSGGGGSSEVQLVESGGGLVQPGGSLRLSCAASGFNIKDTYIHFVRQAPGKGLEWIGRIDPANDNTLYASKFQGKATISADTSKNTAYLQMNSLRAEDTAVYYCGRGYGYYVFDHWGQGTLVTVSSEPKSSDKTHTCPPCPPCGGGSSGGGSGGQPREPQVYTLPPSREEMTKNQVSLTCLVKGFYPSDIAVEWESNGQPENNYKTTPPVLDSDGSFFLYSKLTVDKSRWQQGNVFSCSVMHEALHNHYTQKSLSLSPG
notes: also called IAB22M2C Mb; IAB22M2C minibody
On to B2, for which the values for the EC50 with human CD8 [2] and with human CD8 [3] were 0.4 nM and 0.3 nM, respectively.

B3: Df-IAB22M2C (other)
chain: DVQITQSPSSLSASVGDRVTITCRTSRSISQYLAWYQQKPGKVPKLLIYSGSTLQSGVPSRFSGSGSGTDFTLTISSLQPEDVATYYCQQHNENPLTFGGGTKVEIKGSTSGGGSGGGSGGGGSSEVQLVESGGGLVQPGGSLRLSCAASGFNIKDTYIHFVRQAPGKGLEWIGRIDPANDNTLYASKFQGKATISADTSKNTAYLQMNSLRAEDTAVYYCGRGYGYYVFDHWGQGTLVTVSSEPKSSDKTHTCPPCPPCGGGSSGGGSGGQPREPQVYTLPPSREEMTKNQVSLTCLVKGFYPSDIAVEWESNGQPENNYKTTPPVLDSDGSFFLYSKLTVDKSRWQQGNVFSCSVMHEALHNHYTQKSLSLSPG
modifications: deferoxamine (Df) conjugated to lysine residues; chelator:minibody ratio of approximately 2
notes: Same polypeptide as m1; also called desferrioxamine-conjugated IAB22M2C; Df-IAB22M2C critical intermediate
For B3, the values for the EC50 with human CD8 [4] and in the test with human CD8 [5] were 0.3 nM and 0.4 nM, respectively.
